We go through eleven substances from publication PMC6792138.

The subject of the data set is PthA4AT (7.5-repeat TAL effector) (Xanthomonas citri ssp. citri variant AT). Nature of the data set: PBM. The note with it: not stated; PBM performed as in Godoy et al. 2011.

PBM probes with TTATTACCC: the binding signal worked out at 0.46 E-score.
PBM probes with ATATCACCT showed a binding signal of 0.46 E-score.
For the substance PBM probes with TTATCACCT, the binding signal stood at 0.464 E-score.
With PBM probes with ATTATTACC, the binding signal is 0.456 E-score.
The result for PBM probes with TATTACCCC reads 0.458 E-score.
PBM probes with TATAACCTT returned a binding signal of 0.462 E-score.
For PBM probes with TTATTACCT, the binding signal was 0.476 E-score.
To PBM probes with TATCGCCTT belongs 0.454 E-score.
As to PBM probes with TATCACCTT, the binding signal is 0.476 E-score.
In turn, PBM probes with TATTACCTC returned a binding signal of 0.466 E-score.
PBM probes with TATTACCTT yielded a binding signal of 0.481 E-score.
